Reference: article PMC7195491
Where “and” joins values, the source holds several entries; their conditions need not be identical. Equal values may be shown once. Read-outs that look alike come from different tables or passages of the source.

Experiments:
[1] = target: DIP-γ mutant at position 9 (Drosophila melanogaster); assay: SPR; Biacore T100, CM4 chip; DIPs and DIP mutants immobilised by amine coupling (760-980 RU), Dprs and Dpr mutants as analytes (three-fold dilution series, up to 81 μM, in some cases up to 27 or 9 μM); 25 °C; 10 mM Tris-HCl pH 7.2, 150 mM NaCl, 1 mM EDTA, 1 mg/mL BSA, 0.01% Tween-20; equilibrium fit, 1:1 model; for KDs > 300 μM a lower limit is listed
[2] = target: DIP-γ (Drosophila melanogaster); assay: as above
[3] = target: DIP-β (isoformG), extracellular region (Drosophila melanogaster); assay: SPR; Biacore T100, CM4 chip; DIPs and DIP mutants immobilised by amine coupling, Dprs as analytes; 25 °C; 10 mM Tris-HCl pH 7.2, 150 mM NaCl, 1 mM EDTA, 1 mg/mL BSA, 0.01% Tween-20; duplicate responses fit globally to a 1:1 model; Rmax fixed for KDs > 100 μM, lower limit listed for KDs > 300 μM
[4] = target: DIP-α (Dpr Interacting Protein alpha), extracellular region (Drosophila melanogaster) (UniProt Q9W4R3); assay: as above
[5] = target: DIP-γ (Dpr Interacting Protein gamma), extracellular region (Drosophila melanogaster) (UniProt Q9VAR6); assay: as above
[6] = target: DIP-γ R22S {R112S}, extracellular region (Drosophila melanogaster) (UniProt Q9VAR6); assay: as above
[7] = target: DIP-γ R15N {R86N}, extracellular region (Drosophila melanogaster) (UniProt Q9VAR6); assay: as above
[8] = target: DIP-γ (Dpr Interacting Protein gamma), extracellular region (Drosophila melanogaster) (UniProt Q9VAR6); assay: as above; remark: listed apart in the source
[9] = target: DIP-α K10Q G4S {K81Q G74S}, extracellular region (Drosophila melanogaster) (UniProt Q9W4R3); assay: as above
[10] = target: DIP-α I16A {I91A}, extracellular region (Drosophila melanogaster) (UniProt Q9W4R3); assay: as above
[11] = target: DIP-α G4A {G74A}, extracellular region (Drosophila melanogaster) (UniProt Q9W4R3); assay: as above
[12] = target: DIP-α A11T {A82T}, extracellular region (Drosophila melanogaster) (UniProt Q9W4R3); assay: as above
[13] = target: DIP-α A7K {A78K}, extracellular region (Drosophila melanogaster) (UniProt Q9W4R3); assay: as above
[14] = target: DIP-α N19D {N94D}, extracellular region (Drosophila melanogaster) (UniProt Q9W4R3); assay: as above
[15] = target: DIP-α K10Q S32D {K81Q S133D}, extracellular region (Drosophila melanogaster) (UniProt Q9W4R3); assay: as above
[16] = target: DIP-α G4L {G74L}, extracellular region (Drosophila melanogaster) (UniProt Q9W4R3); assay: as above
[17] = target: DIP-α K10Q D29S {K81Q D129S}, extracellular region (Drosophila melanogaster) (UniProt Q9W4R3); assay: as above
[18] = target: DIP-α K10Q {K81Q}, extracellular region (Drosophila melanogaster) (UniProt Q9W4R3); assay: as above
[19] = target: DIP-α (Dpr Interacting Protein alpha), extracellular region (Drosophila melanogaster) (UniProt Q9W4R3); assay: as above; remark: listed apart in the source

DIP-γ (Dpr Interacting Protein gamma), extracellular region (Drosophila melanogaster), sequence (Q9VAR6 entry or part of it): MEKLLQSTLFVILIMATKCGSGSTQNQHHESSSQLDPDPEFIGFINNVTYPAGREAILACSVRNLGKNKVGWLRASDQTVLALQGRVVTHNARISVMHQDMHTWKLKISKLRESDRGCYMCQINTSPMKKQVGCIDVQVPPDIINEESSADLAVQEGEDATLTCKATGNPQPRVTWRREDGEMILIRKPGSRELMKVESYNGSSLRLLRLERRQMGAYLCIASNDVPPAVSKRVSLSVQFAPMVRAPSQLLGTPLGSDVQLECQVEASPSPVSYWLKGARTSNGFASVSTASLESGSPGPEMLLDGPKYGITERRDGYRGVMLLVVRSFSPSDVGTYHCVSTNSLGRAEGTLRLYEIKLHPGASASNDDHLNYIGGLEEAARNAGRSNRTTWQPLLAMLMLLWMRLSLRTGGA
DIP-γ R15N {R86N}, extracellular region (Drosophila melanogaster), sequence (Q9VAR6 entry or part of it R15N {R86N} | R15N R86N): as the sequence (Q9VAR6 entry or part of it) above, with R86N counted along it
DIP-γ R22S {R112S}, extracellular region (Drosophila melanogaster), sequence (Q9VAR6 entry or part of it R22S {R112S} | R22S R112S): as the sequence (Q9VAR6 entry or part of it) above, with R112S counted along it

Row | Kd [1] [µM] | Kd [2] [µM] | Kd [3] [µM] | Kd [4] [µM] | Kd [5] [µM] | Kd [6] [µM] | Kd [7] [µM] | Kd [8] | Kd [9] [µM] | Kd [10] [µM] | Kd [11] [µM] | Kd [12] [µM] | Kd [13] [µM] | Kd [14] [µM] | Kd [15] [µM] | Kd [16] [µM] | Kd [17] [µM] | Kd [18] [µM] | Kd [19] [µM] | Substance
1 | 37.2 | 7.9 | – | – | – | – | – | – | – | – | – | – | – | – | – | – | – | – | – | Dpr11 (domain or fragment)
2 | – | – | 270 | > 500 | 7.15 | 9.5 | 13.1 | 8.54 µM and 7.12 µM | – | – | – | – | – | – | – | – | – | – | – | Dpr11 (Defective proboscis extension response 11), extracellular region (from UniProt Q8MRE6 1-360) (domain or fragment)
3 | – | – | 33.3 | 1.3 | – | – | – | – | 68 | 56.9 | 0.9 | 18.1 | 0.28 | 1.4 | 39.1 | 45.8 | 41.6 | 31.8 | 1.4 | Dpr10 (Defective proboscis extension response 10), extracellular region (from UniProt M9PF17 1-362) (domain or fragment)
